Data on two proteins can be found in patent publication US8043804.

acetylated p53, P04637, sequence (P04637 whole entry, looked up): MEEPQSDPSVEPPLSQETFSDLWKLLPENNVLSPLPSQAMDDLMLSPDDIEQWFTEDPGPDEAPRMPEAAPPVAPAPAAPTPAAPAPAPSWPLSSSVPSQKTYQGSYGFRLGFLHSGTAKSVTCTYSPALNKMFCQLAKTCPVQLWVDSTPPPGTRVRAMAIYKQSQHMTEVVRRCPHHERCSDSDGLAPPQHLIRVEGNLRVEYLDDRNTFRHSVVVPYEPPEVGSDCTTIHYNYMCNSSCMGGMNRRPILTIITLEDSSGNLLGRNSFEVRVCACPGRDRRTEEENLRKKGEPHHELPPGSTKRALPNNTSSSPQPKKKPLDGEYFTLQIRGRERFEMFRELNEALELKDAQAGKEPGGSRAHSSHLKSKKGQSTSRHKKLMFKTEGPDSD

B1: Flag-SIRT2 (protein)
chain: MAEPDPSHPLETQAGKVQEAQDSDSDSEGGAAGGEADMDFLRNLFSQTLSLGSQKERLLDELTLEGVARYMQSERCRRVICLVGAGISTSAGIPDFRSPSTGLYDNLEKYHLPYPEAIFEISYFKKHPEPFFALAKELYPGQFKPTICHYFMRLLKDKGLLLRCYTQNIDTLERIAGLEQEDLVEAHGTFYTSHCVSASCRHEYPLSWMKEKIFSEVTPKCEDCQSLVKPDIVFFGESLPARFFSCMQSDFLKVDLLLVMGTSLQVQPFASLISKAPLSTPRLLINKEKAGQSDPFLGMIMGLGGGMDFDSKKAYRDVAWLGECDQGCLALAELLGWKKELEDLVRREHASIDAQSGAGVPNPSTSASPKKSPPPAKDEARTTEREKPQ
In the case of B1, the “in vitro deacetylation assay” value with acetylated tubulin is reported as “deacetylation of tubulin was observed when the purified SIRT2 protein was incubated with acetylated tubulin”.

B2: Flag-SIRT1 (protein)
chain: MADEAALALQPGGSPSAAGADREAASSPAGEPLRKRPRRDGPGLERSPGEPGGAAPEREVPAAARGCPGAAAAALWREAEAEAAAAGGEQEAQATAAAGEGDNGPGLQGPSREPPLADNLYDEDDDDEGEEEEEAAAAAIGYRDNLLFGDEIITNGFHSCESDEEDRASHASSSDWTPRPRIGPYTFVQQHLMIGTDPRTILKDLLPETIPPPELDDMTLWQIVINILSEPPKRKKRKDINTIEDAVKLLQECKKIIVLTGAGVSVSCGIPDFRSRDGIYARLAVDFPDLPDPQAMFDIEYFRKDPRPFFKFAKEIYPGQFQPSLCHKFIALSDKEGKLLRNYTQNIDTLEQVAGIQRIIQCHGSFATASCLICKYKVDCEAVRGDIFNQVVPRCPRCPADEPLAIMKPEIVFFGENLPEQFHRAMKYDKDEVDLLIVIGSSLKVRPVALIPSSIPHEVPQILINREPLPHLHFDVELLGDCDVIINELCHRLGGEYAKLCCNPVKLSEITEKPPRTQKELAYLSELPPTPLHVSEDSSSPERTSPPDSSVIVTLLDQAAKSNDDLDVSESKGCMEEKPQEVQTSRNVESIAEQMENPDLKNVGSSTGEKNERTSVAGTVRKCWPNRVAKEQISRRLDGNQYLFLPPNRYIFHGAEVYSDSEDDVLSSSSCGSNSDSGTCQSPSLEEPMEDESEIEEFYNGLEDEPDVPERAGGAGFGTDGDDQEAINEAISVKQEVTDMNYPSNKS
For the protein B2, in the series with acetylated p53, P04637, the “in vitro deacetylation assay (Western blot for acetylated p53)” value is reported as “deacetylation of p53 was observed when the Flag-SIRT1 protein was incubated with acetylated p53”.
